# Measured values reported in article PMC5085163.
# Target: transducin-like enhancer of split 1 (TLE1) (human (endogenous in synovial sarcoma and control cell lines and tumor tissue)) (UniProt Q04724)
# Test: proximity ligation; Duolink In Situ Red kit on cultured cells fixed with 3% formaldehyde and permeabilized with 0.1% Triton X-100; rabbit anti-SS18 and mouse anti-TLE1 primary antibodies overnight at 4°C; nuclear foci per nucleus; also done after HDAC inhibitors, SXT1596 and siRNA/shRNA against SS18-SSX
# Sequence of UniProt Q04724 (Q04724 whole entry): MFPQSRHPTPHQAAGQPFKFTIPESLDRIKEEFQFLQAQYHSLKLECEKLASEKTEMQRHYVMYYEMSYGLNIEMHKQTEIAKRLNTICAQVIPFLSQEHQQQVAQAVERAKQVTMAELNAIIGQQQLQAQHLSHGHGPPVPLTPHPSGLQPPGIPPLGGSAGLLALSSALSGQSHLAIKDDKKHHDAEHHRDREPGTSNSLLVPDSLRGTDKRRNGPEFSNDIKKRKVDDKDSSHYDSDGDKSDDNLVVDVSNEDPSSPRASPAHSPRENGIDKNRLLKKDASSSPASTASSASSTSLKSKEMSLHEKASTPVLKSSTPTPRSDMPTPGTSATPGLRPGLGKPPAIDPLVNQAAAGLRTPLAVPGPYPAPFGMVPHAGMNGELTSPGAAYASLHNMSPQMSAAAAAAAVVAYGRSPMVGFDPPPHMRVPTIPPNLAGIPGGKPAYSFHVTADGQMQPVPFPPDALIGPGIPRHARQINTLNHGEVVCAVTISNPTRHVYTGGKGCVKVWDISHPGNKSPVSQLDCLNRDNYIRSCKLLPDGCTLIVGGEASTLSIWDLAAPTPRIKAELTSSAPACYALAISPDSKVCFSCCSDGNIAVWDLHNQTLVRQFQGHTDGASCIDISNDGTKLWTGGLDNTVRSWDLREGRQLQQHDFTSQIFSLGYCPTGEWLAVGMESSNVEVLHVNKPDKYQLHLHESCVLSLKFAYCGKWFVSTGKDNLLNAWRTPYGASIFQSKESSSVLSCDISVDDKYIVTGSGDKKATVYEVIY
row,Substance,fold PLA signal over control cell lines [fold]
1,SS18-SSX2 fusion oncoprotein (natural protein),> 10
2,SS18-SSX1 fusion oncoprotein (natural protein),> 10
